The text below walks through data of patent US20030148958A1 (PROCTER AND GAMBLE, published 2003).

Ends that are not written are not given here. Some results are limits rather than exact numbers.

Assay [1] deals with corticotropin releasing factor 1 receptor. The assay is described as follows: cell-based or functional assay.
Assay [2] concerns the target T1, corticotropin releasing factor 2 receptor.
T1 sequence (Q13324 whole entry, species assumed, looked up): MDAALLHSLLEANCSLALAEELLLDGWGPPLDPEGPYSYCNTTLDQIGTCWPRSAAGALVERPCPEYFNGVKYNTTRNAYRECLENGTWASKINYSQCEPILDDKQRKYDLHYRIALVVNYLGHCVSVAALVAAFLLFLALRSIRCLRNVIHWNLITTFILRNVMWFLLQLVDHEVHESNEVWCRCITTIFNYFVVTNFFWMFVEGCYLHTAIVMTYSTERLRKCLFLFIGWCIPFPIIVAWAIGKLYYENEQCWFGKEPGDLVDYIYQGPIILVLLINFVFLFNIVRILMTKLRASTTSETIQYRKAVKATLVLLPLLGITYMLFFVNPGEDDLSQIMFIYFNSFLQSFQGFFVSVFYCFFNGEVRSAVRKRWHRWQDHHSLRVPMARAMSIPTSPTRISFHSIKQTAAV
Kind of assay: cell-based or functional assay.
Throughout, for CRF1R Emax: reference of the scale not given here.
Throughout, for CRF2R Emax: reference of the scale not given here.

Take IVLSLDVPIGLLQELLEMARAEQLAQQAHSNRKLMEII-NH2 [SEQ ID NO 1]: in assay [1], the “CRF1R EC50” value is 0.783 µM and the “CRF1R Emax” value was found to be 64%. In addition, in assay [2], the “CRF2R EC50” value was 0.0315 µM and the “CRF2R Emax” value turned out to be 100%.

ZGPPISIDLPTKLLRKMIEIEKQEKEKQQAANNRLLLDTI (C-terminal amide) [SEQ ID NO 45]: in assay [1], the “CRF1R EC50” value was more than 1 µM and the “CRF1R Emax” value was determined as 7%. In assay [2], the “CRF2R EC50” value is more than 0.1 µM and the “CRF2R Emax” value stood at 44%.

Consider ZGPPISIDLPTLLLRKMIEIEKQEKEKQQAANNRLLLDTI (C-terminal amide) [SEQ ID NO 51], for which, in assay [1], the “CRF1R EC50” value was more than 1 µM and the “CRF1R Emax” value turned out to be 48%. In addition, in assay [2], the “CRF2R EC50” value is 0.0206 µM and the “CRF2R Emax” value worked out at 100%.

ZGPPISIDLPTDLLRKMIEIEKQEKEKQQAANNRLLLDTI (C-terminal amide) [SEQ ID NO 49]: in assay [1], the “CRF1R EC50” value is more than 1 µM and the “CRF1R Emax” value turned out to be 15%. In addition, in assay [2], the “CRF2R EC50” value was more than 0.1 µM and the “CRF2R Emax” value was found to be 37%.

As for ZGPPISIDLPIALLRKMIEIEKQEKEKQQAANNRLLLDTI (C-terminal amide) [SEQ ID NO 47], in assay [1], the “CRF1R EC50” value amounted to 1 µM and the “CRF1R Emax” value stood at 12%. For the same molecule, in assay [2], the “CRF2R EC50” value is more than 0.1 µM and the “CRF2R Emax” value was 66%.

In the case of ZGPPISIDLPTHLLRKMIEIEKQEKEKQQAANNRLLLDTI (C-terminal amide) [SEQ ID NO 74], in assay [1], the “CRF1R EC50” value was more than 0.1 µM and the “CRF1R Emax” value worked out at 7%. Moreover, in assay [2], the “CRF2R EC50” value is 0.055 µM and the “CRF2R Emax” value turned out to be 100%.

Regarding ZGPPISIDLPGYLLRKMIEIEKQEKEKQQAANNRLLLDTI (C-terminal amide) [SEQ ID NO 63], in assay [1], the “CRF1R EC50” value was found to be 0.0732 µM and the “CRF1R Emax” value was 34%. Further, in assay [2], the “CRF2R EC50” value stood at 0.0673 µM and the “CRF2R Emax” value was determined as 100%.

For ZGPPISIDLPWYLLRKMIEIEKQEKEKQQAANNRLLLDTI (C-terminal amide) [SEQ ID NO 55], in assay [1], the “CRF1R EC50” value was found to be 0.0116 µM and the “CRF1R Emax” value is 92%. In assay [2], the “CRF2R EC50” value worked out at 0.00795 µM and the “CRF2R Emax” value stood at 95%.

Consider ZGPPISIDLPPYLLRKMIEIEKQEKEKQQAANNRLLLDTI (C-terminal amide) [SEQ ID NO 57], for which, in assay [1], the “CRF1R EC50” value is more than 0.1 µM and the “CRF1R Emax” value is 12%. Moreover, in assay [2], the “CRF2R EC50” value was more than 0.1 µM and the “CRF2R Emax” value amounted to 46%.

Regarding ZGPPISIDLPTALLRKMIEIEKQEKEKQQAANNRLLLDTI (C-terminal amide) [SEQ ID NO 61], in assay [1], the “CRF1R EC50” value is more than 0.1 µM and the “CRF1R Emax” value was 12%. For the same molecule, in assay [2], the “CRF2R EC50” value was more than 0.1 µM and the “CRF2R Emax” value was 89%.

As to ZGPPISIDLPEYLLRKMIEIEKQEKEKQQAANNRLLLDTI (C-terminal amide) [SEQ ID NO 48], in assay [1], the “CRF1R EC50” value was found to be 1 µM and the “CRF1R Emax” value came to 21%. Further, in assay [2], the “CRF2R EC50” value is 0.1 µM and the “CRF2R Emax” value turned out to be 14%.

Regarding ZGPPISIDLPTYLLRKMIEIEKQEKEKQQAANNRLLLDTI (C-terminal amide) [SEQ ID NO 70], in assay [1], the “CRF1R EC50” value was more than 0.1 µM and the “CRF1R Emax” value is 8%. Also, in assay [2], the “CRF2R EC50” value turned out to be 0.0182 µM and the “CRF2R Emax” value stood at 82%.

In the case of ZGPPISIDLPIGLLRKMIEIEKQEKEKQQAANNRLLLDTI (C-terminal amide) [SEQ ID NO 75], in assay [1], the “CRF1R EC50” value was more than 0.1 µM and the “CRF1R Emax” value was found to be 5%. Besides, in assay [2], the “CRF2R EC50” value was more than 0.1 µM and the “CRF2R Emax” value stood at 52%.

Turning to ZGPPISIDLPKYLLRKMIEIEKQEKEKQQAANNRLLLDTI (C-terminal amide) [SEQ ID NO 58], in assay [1], the “CRF1R EC50” value is more than 0.1 µM and the “CRF1R Emax” value turned out to be 16%. For the same molecule, in assay [2], the “CRF2R EC50” value turned out to be 0.0716 µM and the “CRF2R Emax” value was 100%.

On to ZGPPISIDLPSYLLRKMIEIEKQEKEKQQAANNRLLLDTI (C-terminal amide) [SEQ ID NO 56], for which, in assay [1], the “CRF1R EC50” value was more than 0.1 µM and the “CRF1R Emax” value came out at 14%. In addition, in assay [2], the “CRF2R EC50” value is 0.0504 µM and the “CRF2R Emax” value turned out to be 87%.

In the case of ZGPPISIDLPTILLRKMIEIEKQEKEKQQAANNRLLLDTI (C-terminal amide) [SEQ ID NO 50], in assay [1], the “CRF1R EC50” value was more than 1 µM and the “CRF1R Emax” value was found to be 42%. Moreover, in assay [2], the “CRF2R EC50” value was 0.019 µM and the “CRF2R Emax” value turned out to be 94%.

As to ZGPPISIDLPNYLLRKMIEIEKQEKEKQQAANNRLLLDTI (C-terminal amide) [SEQ ID NO 64], in assay [1], the “CRF1R EC50” value was determined as 0.0689 µM and the “CRF1R Emax” value is 57%. For the same molecule, in assay [2], the “CRF2R EC50” value was 0.0633 µM and the “CRF2R Emax” value came out at 94%.

ZGPPISIDLPDYLLRKMIEIEKQEKEKQQAANNRLLLDTI (C-terminal amide) [SEQ ID NO 54]: in assay [1], the “CRF1R EC50” value stood at 1 µM and the “CRF1R Emax” value was 10%. Also, in assay [2], the “CRF2R EC50” value came out at 0.1 µM and the “CRF2R Emax” value came to 11%.

In the case of ZGPPISIDLPTRLLRKMIEIEKQEKEKQQAANNRLLLDTI (C-terminal amide) [SEQ ID NO 60], in assay [1], the “CRF1R EC50” value is more than 0.1 µM and the “CRF1R Emax” value came to 8%. In assay [2], the “CRF2R EC50” value is more than 0.1 µM and the “CRF2R Emax” value is 44%.

For the molecule ZGPPISIDLPTGLLRKMIEIEKQEKEKQQAANNRLLLDTI (C-terminal amide) [SEQ ID NO 73], in assay [1], the “CRF1R EC50” value is more than 0.1 µM and the “CRF1R Emax” value came to 11%. Also, in assay [2], the “CRF2R EC50” value was more than 0.1 µM and the “CRF2R Emax” value amounted to 11%.

Consider ZGPPISIDLPIQLLRKMIEIEKQEKEKQQAANNRLLLDTI (C-terminal amide) [SEQ ID NO 78], for which, in assay [1], the “CRF1R EC50” value was more than 0.1 µM and the “CRF1R Emax” value is 6%. In assay [2], the “CRF2R EC50” value came to 0.0246 µM and the “CRF2R Emax” value worked out at 78%.

Regarding ZGPPISIDLPRYLLRKMIEIEKQEKEKQQAANNRLLLDTI (C-terminal amide) [SEQ ID NO 65], in assay [1], the “CRF1R EC50” value is more than 0.1 µM and the “CRF1R Emax” value stood at 16%. Besides, in assay [2], the “CRF2R EC50” value amounted to 0.0679 µM and the “CRF2R Emax” value turned out to be 64%.

Take ZGPPISIDLPTVLLRKMIEIEKQEKEKQQAANNRLLLDTI (C-terminal amide) [SEQ ID NO 46]: in assay [1], the “CRF1R EC50” value was more than 1 µM and the “CRF1R Emax” value turned out to be 17%. For the same molecule, in assay [2], the “CRF2R EC50” value was more than 0.1 µM and the “CRF2R Emax” value turned out to be 100%.

For the molecule ZGPPISIDLPTNLLRKMIEIEKQEKEKQQAANNRLLLDTI (C-terminal amide) [SEQ ID NO 59], in assay [1], the “CRF1R EC50” value is more than 0.1 µM and the “CRF1R Emax” value was found to be 10%. Further, in assay [2], the “CRF2R EC50” value is more than 0.1 µM and the “CRF2R Emax” value came out at 27%.

On to ZGPPISIDLPFHLLRKMIEIEKQEKEKQQAANNRLLLDTI (C-terminal amide) [SEQ ID NO 69], for which, in assay [1], the “CRF1R EC50” value is 0.0345 µM and the “CRF1R Emax” value came to 88%. Besides, in assay [2], the “CRF2R EC50” value was determined as 0.00585 µM and the “CRF2R Emax” value was found to be 81%.

Take ZGPPISIDLPTPLLRKMIEIEKQEKEKQQAANNRLLLDTI (C-terminal amide) [SEQ ID NO 52]: in assay [1], the “CRF1R EC50” value is more than 1 µM and the “CRF1R Emax” value was 13%. For the same molecule, in assay [2], the “CRF2R EC50” value is more than 0.1 µM and the “CRF2R Emax” value came out at 10%.

On to ZGPPISIDLPFGLLRKMIEIEKQEKEKQQAANNRLLLDTI (C-terminal amide) [SEQ ID NO 68], for which, in assay [1], the “CRF1R EC50” value was more than 0.1 µM and the “CRF1R Emax” value amounted to 33%. In addition, in assay [2], the “CRF2R EC50” value amounted to 0.0386 µM and the “CRF2R Emax” value stood at 74%.

In the case of ZGPPISIDLPFELLRKMIEIEKQEKEKQQAANNRLLLDTI (C-terminal amide) [SEQ ID NO 67], in assay [1], the “CRF1R EC50” value is 0.0442 µM and the “CRF1R Emax” value worked out at 96%. Besides, in assay [2], the “CRF2R EC50” value is 0.01 µM and the “CRF2R Emax” value came to 50%.

On to ZGPPISIDLPIELLRKMIEIEKQEKEKQQAANNRLLLDTI (C-terminal amide) [SEQ ID NO 76], for which, in assay [1], the “CRF1R EC50” value was more than 0.1 µM and the “CRF1R Emax” value came to 7%. In assay [2], the “CRF2R EC50” value was 0.0915 µM and the “CRF2R Emax” value turned out to be 76%.

Consider ZGPPISIDLPTELLRKMIEIEKQEKEKQQAANNRLLLDTI (C-terminal amide) [SEQ ID NO 71], for which, in assay [1], the “CRF1R EC50” value was more than 0.1 µM and the “CRF1R Emax” value worked out at 6%. In addition, in assay [2], the “CRF2R EC50” value amounted to 0.0948 µM and the “CRF2R Emax” value worked out at 56%.

On to ZGPPISIDLPTQLLRKMIEIEKQEKEKQQAANNRLLLDTI (C-terminal amide) [SEQ ID NO 72], for which, in assay [1], the “CRF1R EC50” value was more than 0.1 µM and the “CRF1R Emax” value came out at 4%. In assay [2], the “CRF2R EC50” value is more than 0.1 µM and the “CRF2R Emax” value is 55%.

For the molecule ZGPPISIDLPIHLLRKMIEIEKQEKEKQQAANNRLLLDTI (C-terminal amide) [SEQ ID NO 77], in assay [1], the “CRF1R EC50” value was more than 0.1 µM and the “CRF1R Emax” value amounted to 5%. For the same molecule, in assay [2], the “CRF2R EC50” value stood at 0.0433 µM and the “CRF2R Emax” value was 100%.
